Laboratory results taken from article PMC2854379.

Target: CDK5RAP2 (human (endogenous in HeLa)) (UniProt Q96SN8)
Experiment: co-IP

Sequence of UniProt Q96SN8 (Q96SN8 whole entry): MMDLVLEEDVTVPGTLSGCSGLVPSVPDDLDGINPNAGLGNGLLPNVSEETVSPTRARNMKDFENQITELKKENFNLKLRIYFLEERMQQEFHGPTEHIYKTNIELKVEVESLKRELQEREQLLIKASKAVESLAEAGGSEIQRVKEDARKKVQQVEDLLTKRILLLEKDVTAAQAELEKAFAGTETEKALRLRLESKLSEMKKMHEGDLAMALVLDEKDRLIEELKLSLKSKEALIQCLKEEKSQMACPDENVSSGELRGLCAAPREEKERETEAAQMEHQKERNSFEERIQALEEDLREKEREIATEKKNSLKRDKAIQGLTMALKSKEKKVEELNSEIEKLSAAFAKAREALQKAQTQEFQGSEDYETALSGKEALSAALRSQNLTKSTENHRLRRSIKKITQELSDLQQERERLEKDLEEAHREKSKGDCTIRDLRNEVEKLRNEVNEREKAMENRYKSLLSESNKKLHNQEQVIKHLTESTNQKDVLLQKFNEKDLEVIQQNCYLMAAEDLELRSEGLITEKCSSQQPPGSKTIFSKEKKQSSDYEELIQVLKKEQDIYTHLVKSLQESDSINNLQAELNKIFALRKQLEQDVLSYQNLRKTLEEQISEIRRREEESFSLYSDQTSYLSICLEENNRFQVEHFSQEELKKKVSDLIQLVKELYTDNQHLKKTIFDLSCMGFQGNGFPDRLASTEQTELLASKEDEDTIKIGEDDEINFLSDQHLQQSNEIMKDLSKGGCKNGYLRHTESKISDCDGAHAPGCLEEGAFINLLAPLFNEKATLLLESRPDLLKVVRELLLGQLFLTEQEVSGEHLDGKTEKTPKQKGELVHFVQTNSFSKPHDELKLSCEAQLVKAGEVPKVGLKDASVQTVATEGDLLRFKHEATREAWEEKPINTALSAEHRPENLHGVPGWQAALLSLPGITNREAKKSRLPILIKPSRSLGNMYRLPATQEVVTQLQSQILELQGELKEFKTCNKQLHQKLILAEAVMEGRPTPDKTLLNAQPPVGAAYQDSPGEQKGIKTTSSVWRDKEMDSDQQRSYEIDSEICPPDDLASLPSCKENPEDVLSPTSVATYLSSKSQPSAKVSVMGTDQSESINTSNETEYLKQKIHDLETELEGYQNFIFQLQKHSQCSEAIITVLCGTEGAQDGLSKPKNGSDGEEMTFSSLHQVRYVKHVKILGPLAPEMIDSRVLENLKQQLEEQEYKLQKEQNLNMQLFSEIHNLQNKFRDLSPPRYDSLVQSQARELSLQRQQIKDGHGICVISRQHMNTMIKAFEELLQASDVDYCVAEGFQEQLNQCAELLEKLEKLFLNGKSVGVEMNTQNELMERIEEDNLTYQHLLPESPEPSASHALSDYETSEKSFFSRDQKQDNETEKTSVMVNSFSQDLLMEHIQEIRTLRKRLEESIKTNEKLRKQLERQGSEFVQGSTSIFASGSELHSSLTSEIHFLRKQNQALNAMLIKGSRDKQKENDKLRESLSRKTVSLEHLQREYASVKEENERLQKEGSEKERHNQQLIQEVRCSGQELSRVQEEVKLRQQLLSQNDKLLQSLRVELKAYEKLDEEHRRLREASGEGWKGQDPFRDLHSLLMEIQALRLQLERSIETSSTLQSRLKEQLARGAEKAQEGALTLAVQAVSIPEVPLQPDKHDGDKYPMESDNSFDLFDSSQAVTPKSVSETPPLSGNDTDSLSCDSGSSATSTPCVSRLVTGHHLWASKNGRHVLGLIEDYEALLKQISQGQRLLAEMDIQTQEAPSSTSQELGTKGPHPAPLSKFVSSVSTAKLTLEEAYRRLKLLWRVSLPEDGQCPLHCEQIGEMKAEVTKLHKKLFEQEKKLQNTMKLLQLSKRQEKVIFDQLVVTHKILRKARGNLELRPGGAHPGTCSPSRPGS

percent of total AKAP450 co-immunoprecipitated by CDK5RAP2 antibody: 40%
Substance: AKAP450, Q99996 1-3907
